Laboratory results from the RNAGym collection of RNA variant scans (doi:10.7554/elife.80360).

B1: HDV Ribozyme (parent)
chain: GGCCGGCAUGGUCCCAGCCUCCUCGCUGGCGCCGGCUGGGCAACAUUCCGAGGGGACCGUCCCCUCGGUAAUGGCGAAUGGGACCCA

Variants of: B1
Experiment: self-cleavage, relative activity (ratio to wild type); higher = more cleavage; co-transcriptional

In order of rising self-cleavage:
1. GGCCGGCAUGGUCCCAGCCUCCUCGCUGGCGCCGGCUCGGCAACAUUCCGAGGGGACCGUCCCCUCGGUAAUGGAGAAUGGGACCCA [G38C C75A]  0
2. GGCCGGCAUGGUCCCAGCCUCCUCGCUGGCGCCGGCUAGGCAACAUUCCGAGGGGACCGCCCCCUCGGUAAUGGCGAAUGGGACCCA [G38A U60C]  0.0272
3. GGCCGGCAUGGUCCCAGCCUCCUCGCUGGCGCCGGCUCGGCAACAUUCCGAGGGGACCGUCCCCUCGGUAAUGGCGAUUGGGACCCA [G38C A78U]  0.0308
4. GGCCGGCAUGGUCCCAGCCUCCUCGCUGGCGCCGGCUAGGCAACAUUCCGAGGGGACCGUCCCCUCGGUAAUGGCGAAUAGGACCCA [G38A G80A]  0.0372
5. GGCCGGCAUGGUCCCAGCCUCCUCGCUGGCGCCGGCUAGGCAACAUUCCGAGGGGACCGGCCCCUCGGUAAUGGCGAAUGGGACCCA [G38A U60G]  0.0386
6. GGCCGGCAUGGUCCCAGCCUCCUCGCUGGCGCCGGCUAGGCAACAUUCCGAGGGGACCGUCCCCUCGGUAAUGGCGAAUGGUACCCA [G38A G82U]  0.0405
7. GGCCGGCAUGGUCCCAGCCUCCUCGCUGGCGCCGGCUAGGCAACAUUCCGAGGGGACCGUCCCCUCGGUAAGGGCGAAUGGGACCCA [G38A U72G]  0.0415
8. GGCCGGCAUGGUCCCAGCCUCCUCGCUGGCGCCGGCUCGGCAACAUUCCGAGGGGACCGUCCCCUCGGUAAUGGCGGAUGGGACCCA [G38C A77G]  0.0536
9. GGCCGGCAUGGUCCCAGCCUCCUCGCUGGCGCCGGCUAGGCAACAUUCCGAGUGGACCGUCCCCUCGGUAAUGGCGAAUGGGACCCA [G38A G53U]  0.0567
10. GGCCGGCAUGGUCCCAGCCUCCUCGCUGGCGCCGGCUAGGCAACAUUCCGAGCGGACCGUCCCCUCGGUAAUGGCGAAUGGGACCCA [G38A G53C]  0.0678
11. GGCCGGCAUGGUCCCAGCCUCCUCGCUGGCGCCGGCUCGGCAACCUUCCGAGGGGACCGUCCCCUCGGUAAUGGCGAAUGGGACCCA [G38C A45C]  0.0678
12. GGCCGGCAUGGUCCCAGCCUCCUCGCUGGCGCCGGCUAGGCAACAUUCCGAGGGGACCGUCCCCUCGGUAAUGGCGAAUGCGACCCA [G38A G81C]  0.0712
13. GGCCGGCAUGGUCCCAGCCUCCUCGCUGGCGCCGGCUAGGCAACAUUCCGAGGGGACCGUCCCCUCGGUAAUGACGAAUGGGACCCA [G38A G74A]  0.0755
14. GGCCGGCAUGGUCCCAGCCUCCUCGCUGGCGCCGGCUAGGCAACAUUCCGAGGGGACCGUCCCCUCGGUAAUGGCCAAUGGGACCCA [G38A G76C]  0.0767
15. GGCCGGCAUGGUCCCAGCCUCCUCGCUGGCGCCGGCUAGGCAACAUCCCGAGGGGACCGUCCCCUCGGUAAUGGCGAAUGGGACCCA [G38A U47C]  0.0767
16. GGCCGGCAUGGUCCCAGCCUCCUCGCUGGCGCCGGCUAGGCAACAUUCCGAGGGAACCGUCCCCUCGGUAAUGGCGAAUGGGACCCA [G38A G55A]  0.0821
17. GGCCGGCAUGGUCCCAGCCUCCUCGCUGGCGCCGGCUAGGCAACAUUCCGAGGGGACCGUCCCCUCGGUAAUGGCGAAAGGGACCCA [G38A U79A]  0.0831
18. GGCCGGCAUGGUCCCAGCCUCCUCGCUGGCGCCGGCUAGGCAACAUUCCGAGGGGACCGUCCCCUCGGUAAUAGCGAAUGGGACCCA [G38A G73A]  0.0875
19. GGCCGGCAUGGUCCCAGCCUCCUCGCUGGCGCCGGCUAGGCAACAUUCCAAGGGGACCGUCCCCUCGGUAAUGGCGAAUGGGACCCA [G38A G50A]  0.0886
20. GGCCGGCAUGGUCCCAGCCUCCUCGCUGGCGCCGGCUAGGCAACAUUCCGAGGGGACCGUCCCCUCGGUAAUGUCGAAUGGGACCCA [G38A G74U]  0.0934
21. GGCCGGCAUGGUCCCAGCCUCCUCGCUGGCGCCGGCUCGGCAACAUUCCGAGGGGACCGUCCCCUCGGUAAUGGGGAAUGGGACCCA [G38C C75G]  0.104
22. GGCCGGCAUGGUCCCAGCCUCCUCGCUGGCGCCGGCUCGGCAACAUUACGAGGGGACCGUCCCCUCGGUAAUGGCGAAUGGGACCCA [G38C C48A]  0.104
23. GGCCGGCAUGGUCCCAGCCUCCUCGCUGGCGCCGGCUCGGCCACAUUCCGAGGGGACCGUCCCCUCGGUAAUGGCGAAUGGGACCCA [G38C A42C]  0.104
24. GGCCGGCAUGGUCCCAGCCUCCUCGCUGGCGCCGGCUAGGCAACAUUCCGAGGGGACCGUCCCCUCGGUAAUGGCAAAUGGGACCCA [G38A G76A]  0.112
25. GGCCGGCAUGGUCCCAGCCUCCUCGCUGGCGCCGGCUAGGCAACAUUCCGAGGGGACCGUCCCCUCCGUAAUGGCGAAUGGGACCCA [G38A G67C]  0.113
26. GGCCGGCAUGGUCCCAGCCUCCUCGCUGGCGCCGGCUCGGCAUCAUUCCGAGGGGACCGUCCCCUCGGUAAUGGCGAAUGGGACCCA [G38C A43U]  0.116
27. GGCCGGCAUGGUCCCAGCCUCCUCGCUGGCGCCGGCUCGGCAACAUUGCGAGGGGACCGUCCCCUCGGUAAUGGCGAAUGGGACCCA [G38C C48G]  0.133
28. GGCCGGCAUGGUCCCAGCCUCCUCGCUGGCGCCGGCUCGGCAACAUUCCGAGGGGACCGUUCCCUCGGUAAUGGCGAAUGGGACCCA [G38C C61U]  0.136
29. GGCCGGCAUGGUCCCAGCCUCCUCGCUGGCGCCGGCUAGGCAACAUUCCGAGGGGACCGUCCCCUCGGAAAUGGCGAAUGGGACCCA [G38A U69A]  0.148
30. GGCCGGCAUGGUCCCAGCCUCCUCGCUGGCGCCGGCUCGGCAACAUUCCGAGGGGACCGUCCCCUUGGUAAUGGCGAAUGGGACCCA [G38C C66U]  0.153
31. GGCCGGCAUGGUCCCAGCCUCCUCGCUGGCGCCGGCUAGGCAACAUUCCGAGGGGACCGUCCCCUCGGUAAAGGCGAAUGGGACCCA [G38A U72A]  0.155
32. GGCCGGCAUGGUCCCAGCCUCCUCGCUGGCGCCGGCUCGGCAACAUUCCGAGGGGACCGUCCCCUCGGUAAUGGCGAAUGGGACCCG [G38C A87G]  0.155
33. GGCCGGCAUGGUCCCAGCCUCCUCGCUGGCGCCGGCUAGGCAACAUUCCGAGGGGACCGUCCCCUCGGUAAUGGCGAAUUGGACCCA [G38A G80U]  0.156
34. GGCCGGCAUGGUCCCAGCCUCCUCGCUGGCGCCGGCUAGGCAACAUUCCUAGGGGACCGUCCCCUCGGUAAUGGCGAAUGGGACCCA [G38A G50U]  0.157
35. GGCCGGCAUGGUCCCAGCCUCCUCGCUGGCGCCGGCUCGGCAACAUUUCGAGGGGACCGUCCCCUCGGUAAUGGCGAAUGGGACCCA [G38C C48U]  0.161
36. GGCCGGCAUGGUCCCAGCCUCCUCGCUGGCGCCGGCUAGGCAACAUUCCGAGGGGACCGUCCCCUCGGGAAUGGCGAAUGGGACCCA [G38A U69G]  0.166
37. GGCCGGCAUGGUCCCAGCCUCCUCGCUGGCGCCGGCUAGGCAACAUUCCGAGGGGACCGUCCCCUCGGUAAUGGCGAAUGUGACCCA [G38A G81U]  0.176
38. GGCCGGCAUGGUCCCAGCCUCCUCGCUGGCGCCGGCUCGGCAACAUUCCGAGGGGCCCGUCCCCUCGGUAAUGGCGAAUGGGACCCA [G38C A56C]  0.181
39. GGCCGGCAUGGUCCCAGCCUCCUCGCUGGCGCCGGCUCGGCAACAUUCCGAGGGGACCGUCCCCUCGGUUAUGGCGAAUGGGACCCA [G38C A70U]  0.185
40. GGCCGGCAUGGUCCCAGCCUCCUCGCUGGCGCCGGCUAGGCAACAUUCCGAGGGUACCGUCCCCUCGGUAAUGGCGAAUGGGACCCA [G38A G55U]  0.19
41. GGCCGGCAUGGUCCCAGCCUCCUCGCUGGCGCCGGCUCGGCAACAUUCCGAGGGGACCGUCCUCUCGGUAAUGGCGAAUGGGACCCA [G38C C63U]  0.194
42. GGCCGGCAUGGUCCCAGCCUCCUCGCUGGCGCCGGCUCGGCAACAUUCCGAGGGGGCCGUCCCCUCGGUAAUGGCGAAUGGGACCCA [G38C A56G]  0.197
43. GGCCGGCAUGGUCCCAGCCUCCUCGCUGGCGCCGGCUAGGCAACAUUCCGAGGGGACCGUCCCCUCGGUAAUGGCUAAUGGGACCCA [G38A G76U]  0.202
44. GGCCGGCAUGGUCCCAGCCUCCUCGCUGGCGCCGGCUCGGCAACAUUCCGAGGGGACCGUCGCCUCGGUAAUGGCGAAUGGGACCCA [G38C C62G]  0.208
45. GGCCGGCAUGGUCCCAGCCUCCUCGCUGGCGCCGGCUCGGCUACAUUCCGAGGGGACCGUCCCCUCGGUAAUGGCGAAUGGGACCCA [G38C A42U]  0.208
46. GGCCGGCAUGGUCCCAGCCUCCUCGCUGGCGCCGGCUCGGCAACUUUCCGAGGGGACCGUCCCCUCGGUAAUGGCGAAUGGGACCCA [G38C A45U]  0.213
47. GGCCGGCAUGGUCCCAGCCUCCUCGCUGGCGCCGGCUCGGCAGCAUUCCGAGGGGACCGUCCCCUCGGUAAUGGCGAAUGGGACCCA [G38C A43G]  0.219
48. GGCCGGCAUGGUCCCAGCCUCCUCGCUGGCGCCGGCUCGGCAAGAUUCCGAGGGGACCGUCCCCUCGGUAAUGGCGAAUGGGACCCA [G38C C44G]  0.222
49. GGCCGGCAUGGUCCCAGCCUCCUCGCUGGCGCCGGCUCGGCAACGUUCCGAGGGGACCGUCCCCUCGGUAAUGGCGAAUGGGACCCA [G38C A45G]  0.227
50. GGCCGGCAUGGUCCCAGCCUCCUCGCUGGCGCCGGCUCGGCAACAUUCCGAGGGGACCGUCCCCUCGGUACUGGCGAAUGGGACCCA [G38C A71C]  0.231
51. GGCCGGCAUGGUCCCAGCCUCCUCGCUGGCGCCGGCUCGGCAACAUUCCGAGGGGACGGUCCCCUCGGUAAUGGCGAAUGGGACCCA [G38C C58G]  0.237
52. GGCCGGCAUGGUCCCAGCCUCCUCGCUGGCGCCGGCUCGGCAACAUUCCGAGGGGACCGUCCCCUCGGUAAUGGCGAAUGGGACCCA [G38C]  0.239
53. GGCCGGCAUGGUCCCAGCCUCCUCGCUGGCGCCGGCUAGGCAACAUUCCGAUGGGACCGUCCCCUCGGUAAUGGCGAAUGGGACCCA [G38A G52U]  0.245
54. GGCCGGCAUGGUCCCAGCCUCCUCGCUGGCGCCGGCUCGGCAACAUUCCGAGGGGACCGUCCCCUCGGUAAUGGCGAAUGGGACCCU [G38C A87U]  0.252
55. GGCCGGCAUGGUCCCAGCCUCCUCGCUGGCGCCGGCUCGGCAACAUUCCGAGGGGUCCGUCCCCUCGGUAAUGGCGAAUGGGACCCA [G38C A56U]  0.262
56. GGCCGGCAUGGUCCCAGCCUCCUCGCUGGCGCCGGCUAGGCAACAUUCCGAGGAGACCGUCCCCUCGGUAAUGGCGAAUGGGACCCA [G38A G54A]  0.273
57. GGCCGGCAUGGUCCCAGCCUCCUCGCUGGCGCCGGCUAGGCAACAUUCCGAGGGGACCGUCCCCACGGUAAUGGCGAAUGGGACCCA [G38A U65A]  0.273
58. GGCCGGCAUGGUCCCAGCCUCCUCGCUGGCGCCGGCUCGGCAACAUUCUGAGGGGACCGUCCCCUCGGUAAUGGCGAAUGGGACCCA [G38C C49U]  0.277
59. GGCCGGCAUGGUCCCAGCCUCCUCGCUGGCGCCGGCUCGGCAACAUUCCGAGGGGACCGUCCCCUCGGUCAUGGCGAAUGGGACCCA [G38C A70C]  0.291
60. GGCCGGCAUGGUCCCAGCCUCCUCGCUGGCGCCGGCUCGGCAACAUUCCGGGGGGACCGUCCCCUCGGUAAUGGCGAAUGGGACCCA [G38C A51G]  0.309
61. GGCCGGCAUGGUCCCAGCCUCCUCGCUGGCGCCGGCUCGGCAACAUUCCGAGGGGACCGUCACCUCGGUAAUGGCGAAUGGGACCCA [G38C C62A]  0.354
62. GGCCGGCAUGGUCCCAGCCUCCUCGCUGGCGCCGGCUCGGCAACAUUCCGAGGGGAGCGUCCCCUCGGUAAUGGCGAAUGGGACCCA [G38C C57G]  0.356
63. GGCCGGCAUGGUCCCAGCCUCCUCGCUGGCGCCGGCUCGGCAACAUUCCGAGGGGACAGUCCCCUCGGUAAUGGCGAAUGGGACCCA [G38C C58A]  0.361
64. GGCCGGCAUGGUCCCAGCCUCCUCGCUGGCGCCGGCUCGGCAACAUUCCGAGGGGACCGUCCCGUCGGUAAUGGCGAAUGGGACCCA [G38C C64G]  0.415
